The record followed here is patent publication CN115433277A.

The target in this experiment is CD38 FC融合标签蛋白 (CD38 Fc fusion tag protein, expressed in 293F cells) (UniProt P28907). The experiment is described as follows: indirect ELISA, CD38 protein coated at 1 μg/ml, B cell culture supernatant, goat anti-rabbit IgG-HRP. A general note: An ELISA detects its analyte on a solid surface through an enzyme-linked reagent.

B1: 命名为8H7的兔重组单克隆抗体 (anti-CD38 rabbit recombinant monoclonal antibody 8H7) (antibody, V domains shown)
VH: QSVKESEGGLFKPTDTLTLTCTVSGFSLSSYGVIWVRQAPGKGLEYIGFVAVGGTTYYANWAKSRSTITRNTNENTVTLKMTSLTAADTATYFCVRNGVSGSSDIWGPGTLVTVSS
VL: AYDMTQTPASVSEPVGGTVTIKCQASQSIYSYLSWYQQKLGQPPKLLIYSASTLASGVSSRFKGSGSGTEYTLTISGVECADAATYYCQQDYSGSNVDNTFGGGTEVVVK
The molecule B1 came in with an OD450 of 1.78 OD450.

B2: 命名为8A1的兔重组单克隆抗体 (anti-CD38 rabbit recombinant monoclonal antibody 8A1) (antibody, V domains shown)
VH: QSLEESGGDLVKPAGSLTLTCTASGFSFSTSYWICWVRQAPGKGLEWIACIYTGSGSTPYASWAKGRFTISKTSSTTVTLQVTSLTAADTATYFCARDPGVHSGTNLWGQGTLVSVSS
VL: DVVMTQTPASVSAAVGGTVTIKCQASEDINTLLAWYQQKPGQPPKLLIYLASNLASGVSSRFKGSRSGTEFTLTISDLECADAATYYCQCTYYGSTYGGTFGGGTEVVVK
B2 returned an OD450 of 2.23 OD450.
